One substance from patent US20080194611 can be followed below.

This data set addresses S1P3 receptor (UniProt Q99500).

Chain of S1P3 receptor (Q99500 whole entry): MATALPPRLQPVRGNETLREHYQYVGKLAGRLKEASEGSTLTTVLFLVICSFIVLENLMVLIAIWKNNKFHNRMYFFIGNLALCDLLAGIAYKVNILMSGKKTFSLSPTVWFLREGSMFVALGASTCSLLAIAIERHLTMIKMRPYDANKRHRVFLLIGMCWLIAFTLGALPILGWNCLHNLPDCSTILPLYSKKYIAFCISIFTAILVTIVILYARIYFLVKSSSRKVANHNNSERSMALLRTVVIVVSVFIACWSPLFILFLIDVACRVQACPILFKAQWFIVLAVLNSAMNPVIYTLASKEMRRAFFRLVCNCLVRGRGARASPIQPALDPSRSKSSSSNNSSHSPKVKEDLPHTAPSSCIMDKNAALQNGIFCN

For recombinant active Src, the “in vitro tyrosine phosphorylation of isolated S1P3 receptor (immunoblot)” value is reported as “Src tyrosine phosphorylation of the S1P3 receptor”.
